Test results as given in patent US20090221008A1 (Human Genome Sciences, published 2009).

Legend:
[1] = target: T1, soluble form of Neutrokine-alpha (amino acids 134 to 285 of SEQ ID NO:2) (human, UniProt Q9Y275 134-285); assay: summary of Example 10
T1 construct: also called rNeutrokine-alpha; soluble Neutrokine-alpha

[2] = target: T2, membrane-bound form of Neutrokine-alpha (human, UniProt Q9Y275 1-285); assay: summary of Example 10
T2 construct: Endogenous type II membrane protein on THP-1 cells, monocytes and myeloid cell lines; also called Neutrokine-alpha on the surface of THP-1 cells; cell surface Neutrokine-alpha

[3] = target: T3, peptide comprising amino acid residues Val-227 to Asn-242 of SEQ ID NO:2 (human); assay: epitope mapping with peptides
T3 peptide: VTLFRCIQNMPETLPN

T2 sequence (Q9Y275 whole entry): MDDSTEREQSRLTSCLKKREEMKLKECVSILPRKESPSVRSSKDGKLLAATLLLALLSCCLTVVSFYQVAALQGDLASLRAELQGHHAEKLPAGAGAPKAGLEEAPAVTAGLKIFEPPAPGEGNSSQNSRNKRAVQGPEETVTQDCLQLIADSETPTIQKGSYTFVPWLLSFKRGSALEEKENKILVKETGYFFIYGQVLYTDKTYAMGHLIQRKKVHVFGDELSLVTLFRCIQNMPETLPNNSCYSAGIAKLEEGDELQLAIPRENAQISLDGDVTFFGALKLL

binding result [1]: binds
binding result [2]: binds
binding result [3]: binds
B1: 15C10 (antibody, human IgG1, V domains shown)
VH: QVQLQQSGAELARPGASVKMSCRASGYTFTTYTMHWVKQRPGQGLEWIGYIIPRNTYTTFNQKFKNKATLTADKSSNTAYMQLSSLTSEDSAVYYCARHYGGGYWFFDVWGAGTTVTVSS
VL: ELVMTQTPASLAVSLGQRATISCRGSESVDSYGNSFMHWYQQKPGQPPKLLIYRASNLESGIPARFSGSGSRTDFTLTIYPVEADDVATYYCQQSNDDPMYTFGGGTKLEIKR
notes: Murine monoclonal antibody; hybridoma ATCC PTA-1158; A chimeric form with human IgG1/kappa was deposited as ATCC PTA-3794; also called anti-Neutrokine-alpha antibody 15C10
